Assay results published in patent publication US20180117171A1, “IMMUNOCONJUGATES FOR PROGRAMMING OR REPROGRAMMING OF CELLS” (President and Fellows of Harvard College, priority 2015, published 2018).

Legend:
[1] = tested on: antigen specific Th17 T cells; assay: Th17 ELISpot of splenocytes challenged with MOG; type: in vivo; conditions: splenocytes of treated mice with EAE induced, MOG challenge
Text: To further explore the mechanism for tolerance induction in EAE animals treated with bolus immunoconjugate, T cell analyses (ELISpot and passive EAE assays) were completed in mice that received the immunoconjugate or control therapies (FIG. 36A-C). Splenocytes from mice treated with MOG alone or Dex-MOG with EAE induced were challenged with MOG to quantitate antigen specific elaboration of IL-17.

[2] = tested on: CD8+ T cells from OT-I mice; assay: OT-I: DC co-culture, CFSE T cell proliferation; type: cell-based, mouse; conditions: dexamethasone-SIINFEKL 1.0 μM; ovalbumin 0.2 μM
Procedure: Cytotoxic T-lymphocytes (CTLs) were purified using magnetic beads (Miltenyi Biotec) from the spleens of the T cell receptor (TCR) transgenic OT-I mice (Jackson Laboratories) following the manufacturer's protocol. OT-I mice express a transgenic T cell receptor that recognizes ovalbumin residues 257-264 in the context of H2Kb. The CTLs were cultured with a 1:1 ratio with BMDC for 3 days at 37° C. in R10 media. […] The cells were washed two times before culturing with the T cells. Dexamethasone-TRP-2 was made following the same solid phase method as described above (Peptide synthesizer: CS Bio, DIPEA, Piperidine, TFA, and NMP: Advanced ChemTech, DCM: Sigma, amino acids and resin: Peptides International, dexamethasone hemisuccinate: Steraloids). Three days later, the cells were harvested and analyzed by flow cytometry using the BD LSR II Fortessa. The plots for flow cytometry were obtained using FCS Express.
Carboxyfluorescein succinimidyl ester (CFSE) labeled CD8+ T cells from TCR transgenic OT-I mice were cultured with BMDC for 3 days. […] Three days later, the cells were analyzed by flow cytometry.

[3] = tested on: bone marrow derived dendritic cells (BMDC); assay: BMDC presentation of […] from CpG-OVA conjugate (flow cytometry); type: cell-based; conditions: 18 hours; compared to unconjugated CpG and OVA
Procedure: CpG-OVA conjugate was cultured with bone marrow derived dendritic cells (BMDC) in vitro for 18 hours. BMDC presentation of […] was analyzed using flow cytometry and percentage of CD11c+ DCs presenting the […] peptide on the MHC-I molecule was quantified.

[4] = release of conjugate from the MPS scaffold; type: physicochemical
Procedure: FIG. 48 is a line graph showing the evaluation of the release kinetics of the GnRH-OVA conjugate from the MPS scaffold. The conjugate was loaded into the MPS scaffold for 8 hours at room temperature (RT).
C57bl/6J mice were immunized with MPS scaffold containing 1 ug GM-CSF and 100 ug OVA, 1 ug GM-CSF, 100 ug CpG and 100 ug OVA (MPS vaccine) or 1 ug GM-CSF and 100 ug OVA conjugated to 100 ug CpG (MPS conjugate vaccine). After 7 days, peripheral blood was analyzed using […] tetramer and the percentage of […] specific T cells within CD3+CD8+ T cells was quantified. MPS conjugate vaccine increased the presence of […] specific CD8+ T cells by 2 fold compared with the MPS vaccine (FIG. 40, bottom).

## MEVGWYRSPFSRVVHLYRNGK [MOG alone, myelin oligodendrocyte glycoprotein residues 35-55, reference compound]
[1]
  IL-17 spot forming cells: 230±10 spot forming cells per million

B1: ovalbumin: model antigen protein (protein, UniProt P01012 2-386, looked up)
Ovalbumin: GSIGAASMEFCFDVFKELKVHHANENIFYCPIAIMSALAMVYLGAKDSTRTQINKVVRFDKLPGFGDSIEAQCGTSVNVHSSLRDILNQITKPNDVYSFSLASRLYAEERYPILPEYLQCVKELYRGGLEPINFQTAADQARELINSWVESQTNGIIRNVLQPSSVDSQTAMVLVNAIVFKGLWEKAFKDEDTQAMPFRVTEQESKPVQMMYQIGLFRVASMASEKMKILELPFASGTMSMLVLLPDEVSGLEQLESIINFEKLTEWTSSNVMEERKIKVYLPRMKMEEKYNLTSVLMAMGITDVFSSSANLSGISSAESLKISQAVHAAHAEINEAGREVVGSAEAGVDAASVSEEFRADHPFLFCIKHIATNAVLFFGRCVSP
[2]
  OT-I T cell proliferation, BMDC pretreated with antigen: initiated a stronger proliferative response

B2: CpG-OVA conjugate: OVA protein linked through maleimide to reduced thiol-CpG (conjugate, UniProt P01012 2-386, looked up)
Ovalbumin: B1 Ovalbumin
modifications: CpG oligonucleotide via maleimide linker
[3]
  CD11c+ DCs presenting SIINFEKL on MHC-I: enhanced presentation
[4]
  release from the MPS scaffold: released in a sustained manner followed by a burst release
